The term EC50 denotes the concentration at which the effect is half-maximal.

Holding throughout (test): ELISA; plate coated with 2 ug/ml C3, C3b or recombinant C345C domain overnight at 4 °C; MI3 dilution series in PBST, 37 °C, 1 h; detected with HRP anti-His antibody (HRP anti-VHH antibody for the C345C domain)
Conditions in all cases: both partners purified
A general note: In an ELISA, binding on a coated surface is turned into a signal by an enzyme label.

One assay has as its target T1, complement C3 (Homo sapiens (plasma-derived), UniProt P01024).
T1 construct: Bought protein; it works with normal human serum and anti-human detection antibodies; source: bought: Complement Technology (cat#A113)

Another assay has as its target T2, complement C3b (Homo sapiens (plasma-derived), UniProt P01024).
T2 construct: Bought protein; source: bought: Complement Technology (cat#A114)

The target in assay [1] is T3, recombinant C345C domain of C3 and C3b (Homo sapiens).
T3 construct: C345C domain of complement C3; also called C345C domain (recombinant expression); source: HEK293-F, transfected (pCDNA3.1(+)), secreted, purified (Ni-NTA agarose, anion exchange GigaCap Q-650M)
T3 chain: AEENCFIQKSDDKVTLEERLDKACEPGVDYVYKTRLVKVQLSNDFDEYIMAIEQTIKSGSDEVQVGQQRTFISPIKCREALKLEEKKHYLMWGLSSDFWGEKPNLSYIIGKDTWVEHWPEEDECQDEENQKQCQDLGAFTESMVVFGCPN

T1 sequence (P01024 23-667): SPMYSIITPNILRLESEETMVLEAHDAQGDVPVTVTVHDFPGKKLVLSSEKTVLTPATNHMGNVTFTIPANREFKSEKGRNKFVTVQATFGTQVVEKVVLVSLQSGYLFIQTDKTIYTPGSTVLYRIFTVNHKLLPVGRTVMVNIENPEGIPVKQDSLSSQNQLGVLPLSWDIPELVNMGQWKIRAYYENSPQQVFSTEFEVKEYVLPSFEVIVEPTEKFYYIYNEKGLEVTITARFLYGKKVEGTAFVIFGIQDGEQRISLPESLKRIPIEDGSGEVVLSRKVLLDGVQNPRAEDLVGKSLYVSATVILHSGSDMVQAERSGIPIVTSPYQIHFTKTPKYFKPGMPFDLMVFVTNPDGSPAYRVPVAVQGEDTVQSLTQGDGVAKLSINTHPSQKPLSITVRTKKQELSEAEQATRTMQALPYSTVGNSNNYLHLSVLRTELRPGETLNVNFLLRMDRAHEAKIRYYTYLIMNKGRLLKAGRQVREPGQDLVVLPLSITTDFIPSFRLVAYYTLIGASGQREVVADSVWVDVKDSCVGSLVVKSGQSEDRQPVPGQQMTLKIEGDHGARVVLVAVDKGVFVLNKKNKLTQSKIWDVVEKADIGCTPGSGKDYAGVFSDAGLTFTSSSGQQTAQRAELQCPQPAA
T2 sequence (P01024 23-667): as above

B1: MI3 (nanobody) (VHH)
VHH: DVQLQESGGGLVQPGGSLRLSCVASGSTFSTYHMGWYRQAPGKQRELIAGITSGGRISYVDSVKGRFNISRDNAKNTVYLQMNTLKPEDTAVYYCNMLGEFAGRPPWGQGTQVTVSS
notes: proprietary nanobody; Provided by Quaerite Biopharm Research; source: HEK293-F, transfected (pCDNA3.1(+)), secreted, purified (Ni-NTA agarose, ion exchange GigaCap Q-650S); not shown: 6xHis (after a GGGGS linker), C-terminal, kept
B1: the EC50 was 0.17 nM in the assay with complement C3, 0.14 nM with complement C3b and 0.19 nM in assay [1].

The values are drawn from PMC11910092, “Modulating the complement system through epitope-specific inhibition by complement C3 inhibitors” (The Journal of Biological Chemistry, 2025).
